In patent US20240158503A1 (PIERRE FABRE MEDICAMENT, published 2024):

Assays:
[1] = molecular target: T1, human His-tagged VSIG4 short isoform (K00400002-BR1-117) (human, UniProt Q9Y279 20-283); assay: HTRF competition: His-tagged VSIG4 short isoform with C3b-d2
T1 construct: also called hVSIG4-His (short form); not shown: His tag (detected with anti-6His)

[2] = molecular target: T2, human VSIG4 overexpressed on HEK293E cells (human, UniProt Q9Y279 20-399); assay: flow cytometry on HEK293E cells expressing human VSIG4, antibody titration
T2 construct: whole, on cells; also called hVSIG4/HEK293E; huVSIG4

[3] = molecular target: T1, human His-tagged VSIG4 short isoform …; assay: HTRF competition: His-tagged VSIG4 short isoform with iC3b
[4] = molecular target: T3, hVSIG4(S)-hFc (VSIG4(S)-Fc) (human); assay: western blot, 100 ng hVSIG4 short-hFc
T3 construct: also called hVSIG4 short-hFc (S); VGIG4(S)-Fc

VSIG4-M5-Fc = molecular target: T4, VSIG4-M5-Fc (human); assay: scFv-phage ELISA on coated Fc fusion (100 ng/well), anti-M13-HRP, A490
T4 construct: 72; Leader left out; 73

VSIG4-M4-Fc = molecular target: T5, VSIG4-M4-Fc (human); assay: as above
T5 construct: 69; Leader left out; 70

VSIG4-M1-Fc = molecular target: T6, VSIG4-M1-Fc (human); assay: as above
T6 construct: Short form carrying E24T, V25A, E27H, V29L, T30A; Structure [LS]-QGAVGA-[VSIG4]-LAASAAS-[FC], leader left out; 61

VSIG4-M3-Fc = molecular target: T7, VSIG4-M3-Fc (human); assay: as above
T7 construct: 66; Leader left out; 67

VSIG4-M6-Fc = molecular target: T8, VSIG4-M6-Fc (human); assay: as above
T8 construct: 75; Leader left out; 76

VSIG4-M2-Fc = molecular target: T9, VSIG4-M2-Fc (human); assay: as above
T9 construct: 63; Leader left out; 64

[5] = molecular target: T10, hVSIG4-V-Fc (short VSIG4 form, epitope-mapping construct) (human); assay: as above
T10 construct: 58; All M1-M8 mutations were made in this short form

[6] = molecular target: T11, hVSIG4-Fc (long VSIG4 form, epitope-mapping construct) (human); assay: as above
T11 construct: 55

VSIG4-M7-Fc = molecular target: T12, VSIG4-M7-Fc (human); assay: scFv-phage ELISA on coated Fc fusion (100 ng/well)
T12 construct: 78; Leader left out; 79

VSIG4-M8-Fc [7] = molecular target: T13, VSIG4-M8-Fc (human); assay: scFv-phage ELISA on coated Fc fusion (100 ng/well)
T13 construct: 81; Leader left out; 82

VSIG4-M8-Fc [8] = molecular target: T13, VSIG4-M8-Fc; assay: scFv-phage ELISA on coated Fc fusion (100 ng/well), anti-M13-HRP, A490

B1: SA2297 (full-length human anti-VSIG4 monoclonal antibody, IgG form) (antibody, V domains shown)
VH: QVQLVESGGGVVQPGGSLRLSCAASGFIFSDYYMSWVRQAPGKGLEWVSYISPSGYTISYADSVKGRFTISRDNSKNSLYLQMNSLRAEDTAVYYCARRFSSSWSGYFDYWGHGALVTVSS
VL: DIQMTQSPSTLSASVGDRVTITCRASQNINRWLAWYQQKPGKAPKLLIYKAFRLHSGVPSRFSGSGSGTEFTLTITSLQPDDFATYYCQQYLSYSSSIFGQGTKVEIK
notes: also called Mab SA2297
B1 gave an IC50 [1] of 16.4 nM, an EC50 [2] of 1.18 nM and an IC50 [3] of 17.9 nM. B1: binds [4].

B2: SA2297 scFv-phage (original scFv version of SA2297) (scFv, V domains shown)
VH: B1 VH
VL: B1 VL
B2: binds (VSIG4-M5-Fc); binds (VSIG4-M4-Fc); binds (VSIG4-M1-Fc). B2: binds (VSIG4-M3-Fc); binds (VSIG4-M6-Fc); binds (VSIG4-M2-Fc). B2: binds [5]; binds [6]; no binding (VSIG4-M7-Fc). B2: no binding (VSIG4-M8-Fc [7]).

B3: SA2281 (full-length human anti-VSIG4 monoclonal antibody, IgG form) (antibody, V domains shown)
VH: QVQLVESGGGVVQPGRSLRVSCAASGFTFSTYAMHWVRQAPGKGLEWLAVVSHDGTYKYYGDSVKGRFSISRDNSKNTLYLQMNSLRSEDTAVYYCGRHAAGSSFDYWGQGTVVTVSS
VL: DIQMTQSPSSLSASVGDRVTITCQASRDISNYLNWYQQKPGKAPKLLIYKTSNLQRGVPSRFSGSGSGTEFTLTISRLQPDDSATYYCQQSYRTPYTFGQGTKLEIK
notes: also called Mab SA2281
Binder B3 has an IC50 [1] of 7.3 nM, an EC50 [2] of 0.461 nM and an IC50 [3] of 9.5 nM. B3: binds [4].

B4: SA2281 scFv-phage (original scFv version of SA2281) (scFv, V domains shown)
VH: B3 VH
VL: B3 VL
B4: binds (VSIG4-M5-Fc); binds (VSIG4-M4-Fc); binds (VSIG4-M1-Fc). B4: binds (VSIG4-M3-Fc); binds (VSIG4-M6-Fc); binds (VSIG4-M8-Fc [8]). B4: binds (VSIG4-M2-Fc); binds [5]; binds [6]. B4: no binding (VSIG4-M7-Fc).
